The record followed here is US20220348617A1.

The target in experiment [1] is Notch 3 EGF domains 5-12 (human) (UniProt Q9UM47). Nature of the experiment: SPR. Conditions: ligand.
The target in experiment [2] is Notch1 EGF domains 6-13 (human) (UniProt P46531). Nature of the experiment: SPR. Conditions: ligand.
In experiment [3] the target is Notch2 EGF domains 6-13 (human) (UniProt Q04721). Nature of the experiment: SPR. Conditions: ligand.
Experiment [4] concerns the target Notch 3 EGF domains 5-12 (human) (UniProt Q9UM47). Nature of the experiment: SPR; N-EGF3. Conditions: ligand.
The target of experiment [5] is Notch1 EGF domains 6-13 (human) (UniProt P46531). Nature of the experiment: SPR; N-EGF3. Conditions: ligand.
Experiment [6] has as its target Notch2 EGF domains 6-13 (human) (UniProt Q04721). Nature of the experiment: SPR; N-EGF3. Conditions: ligand.
Experiment [7] has as its target Notch1 on the fluorescent Notch1 reporter cell line (CHO^N1). Nature of the experiment: cell-based or functional assay.

Chain of Notch2 EGF domains 6-13 (human) (Q04721 221-530): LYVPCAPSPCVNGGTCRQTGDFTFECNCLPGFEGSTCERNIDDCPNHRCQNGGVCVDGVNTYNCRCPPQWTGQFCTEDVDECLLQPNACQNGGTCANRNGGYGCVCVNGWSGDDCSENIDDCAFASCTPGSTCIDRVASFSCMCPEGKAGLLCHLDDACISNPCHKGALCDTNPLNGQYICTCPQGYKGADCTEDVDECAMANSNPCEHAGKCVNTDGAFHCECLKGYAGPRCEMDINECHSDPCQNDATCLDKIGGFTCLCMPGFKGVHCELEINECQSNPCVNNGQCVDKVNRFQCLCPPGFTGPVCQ
Chain of Notch1 EGF domains 6-13 (human) (P46531 218-526): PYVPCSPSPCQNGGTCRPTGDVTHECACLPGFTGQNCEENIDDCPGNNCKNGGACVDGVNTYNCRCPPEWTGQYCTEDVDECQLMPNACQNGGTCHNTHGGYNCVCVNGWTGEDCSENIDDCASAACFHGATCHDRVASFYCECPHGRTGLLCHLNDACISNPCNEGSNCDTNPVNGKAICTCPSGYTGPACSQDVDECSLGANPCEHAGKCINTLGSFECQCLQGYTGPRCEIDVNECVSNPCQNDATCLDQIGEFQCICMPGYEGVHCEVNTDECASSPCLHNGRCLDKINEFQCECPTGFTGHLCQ
Chain of Notch 3 EGF domains 5-12 (human) (Q9UM47 197-505): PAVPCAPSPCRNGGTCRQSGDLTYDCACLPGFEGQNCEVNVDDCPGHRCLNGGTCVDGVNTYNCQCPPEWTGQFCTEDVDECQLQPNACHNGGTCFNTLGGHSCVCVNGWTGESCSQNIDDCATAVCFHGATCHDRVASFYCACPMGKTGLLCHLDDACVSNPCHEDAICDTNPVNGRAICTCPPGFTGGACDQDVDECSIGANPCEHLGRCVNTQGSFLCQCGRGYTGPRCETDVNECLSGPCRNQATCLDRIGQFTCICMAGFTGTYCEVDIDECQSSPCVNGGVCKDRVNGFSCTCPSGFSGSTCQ

Turning to “E12 human DLL4 (from UniProt Q9NR61 27-322)”, the Kd in experiment [1] came out at 470 nM; in experiment [2] it was 450 nM; in experiment [3], 750 nM; in experiment [4], 122 nM; in experiment [5], 103 nM; in experiment [6] it was 244 nM.
Consider “N3a.5_E12 human DLL4 (from UniProt Q9NR61 27-322)”, for which the Kd amounted to 4.7 nM in experiment [1], 2 nM in experiment [2] and 7.4 nM in experiment [3].
In the same order, the values of “N3a.8_E12 human DLL4 (from UniProt Q9NR61 27-322)” are 7.2 nM, 4.2 nM and 15.3 nM.
“wild-type human DLL4 expressed on 293T cells (from UniProt Q9NR61 27-685) (ligand)”: the Notch1 activation (fluorescent Notch1 reporter cells, co-culture) in experiment [7] is 100%.
